# T1: human CLDN18.1 expressed on the cell surface of HEK293 cells (human, UniProt P56856 1-261)
# T1 construct: whole, on cells
# T1 sequence (looked up): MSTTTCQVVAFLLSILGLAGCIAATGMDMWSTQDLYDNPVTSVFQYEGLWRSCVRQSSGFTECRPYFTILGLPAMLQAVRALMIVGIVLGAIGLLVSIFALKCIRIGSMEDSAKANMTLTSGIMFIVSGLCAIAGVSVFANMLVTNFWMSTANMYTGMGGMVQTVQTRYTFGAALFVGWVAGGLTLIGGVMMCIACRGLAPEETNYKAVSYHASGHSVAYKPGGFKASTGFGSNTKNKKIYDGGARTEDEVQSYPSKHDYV
# T2: human CLDN18.2 expressed on the cell surface of HEK293 cells (human, UniProt P56856-2 1-261)
# T2 construct: whole, on cells
# T2 sequence (looked up): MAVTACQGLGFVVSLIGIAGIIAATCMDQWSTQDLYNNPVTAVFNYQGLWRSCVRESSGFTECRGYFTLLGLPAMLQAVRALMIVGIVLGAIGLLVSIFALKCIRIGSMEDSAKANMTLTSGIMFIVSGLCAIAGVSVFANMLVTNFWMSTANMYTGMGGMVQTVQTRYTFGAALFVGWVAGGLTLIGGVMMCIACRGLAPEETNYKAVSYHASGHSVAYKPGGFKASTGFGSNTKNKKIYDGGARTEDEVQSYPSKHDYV
# B1: C8-WT-NA3S-HC (bispecific antibody, human IgG1, kappa, N297Q)
# heavy: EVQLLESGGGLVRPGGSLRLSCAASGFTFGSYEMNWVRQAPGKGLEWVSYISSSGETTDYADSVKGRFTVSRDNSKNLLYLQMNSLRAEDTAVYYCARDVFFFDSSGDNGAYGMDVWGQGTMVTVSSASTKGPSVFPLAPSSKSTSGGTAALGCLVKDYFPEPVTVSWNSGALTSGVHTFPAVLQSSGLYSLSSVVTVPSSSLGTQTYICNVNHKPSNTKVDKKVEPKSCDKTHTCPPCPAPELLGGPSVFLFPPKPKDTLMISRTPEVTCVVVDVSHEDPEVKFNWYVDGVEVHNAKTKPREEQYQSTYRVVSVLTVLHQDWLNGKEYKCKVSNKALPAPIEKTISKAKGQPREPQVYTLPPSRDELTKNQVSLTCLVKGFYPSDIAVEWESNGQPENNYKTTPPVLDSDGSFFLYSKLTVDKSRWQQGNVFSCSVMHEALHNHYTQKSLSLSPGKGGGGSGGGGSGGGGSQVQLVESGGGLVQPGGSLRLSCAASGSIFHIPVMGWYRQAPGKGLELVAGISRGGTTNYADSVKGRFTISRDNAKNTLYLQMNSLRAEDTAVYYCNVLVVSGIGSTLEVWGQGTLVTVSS
# light: DIQLTQSPSSLTASVGDRVTITCRSSQGIRSSLAWYQQKPGKPPKLLIYGASSLEGGVPSRFSGSGSGTDFTLTISSLQPEDFATYYCQQLNSFPSTFGQGTKLEIKRTVAAPSVFIFPPSDEQLKSGTASVVCLLNNFYPREAKVQWKVDNALQSGNSQESVTEQDSKDSTYSLSSTLTLSKADYEKHKVYACEVTHQGLSSPVTKSFNRGEC
# notes: Fc is hIgG1 N297Q; also called anti-CD40×CLDN18.2 bispecific antibody; bispecific antibody of the present invention
# B2: C8-6-NA3S-HC (bispecific antibody, human IgG1, kappa, N297Q)
# heavy: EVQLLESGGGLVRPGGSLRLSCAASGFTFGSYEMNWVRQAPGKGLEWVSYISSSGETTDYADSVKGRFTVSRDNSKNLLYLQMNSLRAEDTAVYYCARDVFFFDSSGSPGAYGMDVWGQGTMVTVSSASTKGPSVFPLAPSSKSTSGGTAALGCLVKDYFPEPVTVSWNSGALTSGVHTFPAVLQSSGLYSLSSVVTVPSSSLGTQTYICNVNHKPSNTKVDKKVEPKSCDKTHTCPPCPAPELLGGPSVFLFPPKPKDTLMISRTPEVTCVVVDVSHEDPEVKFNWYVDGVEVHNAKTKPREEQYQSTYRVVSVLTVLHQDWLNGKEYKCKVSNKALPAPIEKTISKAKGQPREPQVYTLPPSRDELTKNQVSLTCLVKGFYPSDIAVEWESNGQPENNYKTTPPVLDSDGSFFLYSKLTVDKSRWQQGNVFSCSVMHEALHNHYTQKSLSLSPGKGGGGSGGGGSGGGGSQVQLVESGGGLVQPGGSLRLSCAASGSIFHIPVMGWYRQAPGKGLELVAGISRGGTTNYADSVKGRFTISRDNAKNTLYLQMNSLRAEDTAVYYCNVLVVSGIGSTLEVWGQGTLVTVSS
# light: B1 light
# notes: as for B1
# B3: C8-2-NA3S-HC (bispecific antibody, human IgG1, kappa, N297Q)
# heavy: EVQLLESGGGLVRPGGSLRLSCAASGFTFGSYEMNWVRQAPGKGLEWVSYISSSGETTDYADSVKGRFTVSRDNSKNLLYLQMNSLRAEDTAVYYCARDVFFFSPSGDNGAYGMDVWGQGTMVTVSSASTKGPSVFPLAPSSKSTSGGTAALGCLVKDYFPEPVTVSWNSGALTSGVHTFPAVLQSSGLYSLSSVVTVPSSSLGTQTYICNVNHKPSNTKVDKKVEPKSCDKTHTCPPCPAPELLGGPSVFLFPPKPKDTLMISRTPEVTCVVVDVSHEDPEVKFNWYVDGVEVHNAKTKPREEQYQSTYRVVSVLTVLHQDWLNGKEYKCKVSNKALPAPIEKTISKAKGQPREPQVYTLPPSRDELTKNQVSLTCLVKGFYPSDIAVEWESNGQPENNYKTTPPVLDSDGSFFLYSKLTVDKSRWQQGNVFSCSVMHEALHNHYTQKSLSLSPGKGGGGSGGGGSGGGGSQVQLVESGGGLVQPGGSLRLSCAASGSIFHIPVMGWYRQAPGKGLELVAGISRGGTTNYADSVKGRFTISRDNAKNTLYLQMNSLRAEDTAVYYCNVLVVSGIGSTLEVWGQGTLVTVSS
# light: B1 light
# notes: as for B1
# B4: C8-10-NA3S-HC (bispecific antibody, human IgG1, kappa, N297Q)
# heavy: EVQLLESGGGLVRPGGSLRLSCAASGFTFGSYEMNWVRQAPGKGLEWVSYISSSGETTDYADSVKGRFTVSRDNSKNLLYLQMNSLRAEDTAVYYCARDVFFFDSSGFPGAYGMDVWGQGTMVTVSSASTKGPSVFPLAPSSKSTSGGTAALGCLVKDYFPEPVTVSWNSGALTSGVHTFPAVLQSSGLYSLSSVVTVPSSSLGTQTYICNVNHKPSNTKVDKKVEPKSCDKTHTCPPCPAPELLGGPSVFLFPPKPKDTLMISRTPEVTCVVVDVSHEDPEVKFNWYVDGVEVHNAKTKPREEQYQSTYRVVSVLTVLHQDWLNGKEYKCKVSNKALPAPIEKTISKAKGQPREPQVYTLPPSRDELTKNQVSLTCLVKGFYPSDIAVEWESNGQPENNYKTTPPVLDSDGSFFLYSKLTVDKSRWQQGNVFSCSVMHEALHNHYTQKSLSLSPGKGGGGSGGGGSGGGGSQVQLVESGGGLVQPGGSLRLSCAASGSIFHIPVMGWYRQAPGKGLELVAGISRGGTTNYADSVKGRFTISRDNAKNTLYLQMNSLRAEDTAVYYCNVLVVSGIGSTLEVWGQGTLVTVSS
# light: B1 light
# notes: as for B1
# B5: APX005 (antibody, V domains shown)
# VH: QVQLVESGGGVVQPGRSLRLSCAASGFSFSSTYVCWVRQAPGKGLEWIACIYTGDGTNYSASWAKGRFTISKDSSKNTVYLQMNSLRAEDTAVYFCARPDITYGFAINFWGPGTLVTVSS
# VL: DIQMTQSPSSLSASVGDRVTIKCQASQSISSRLAWYQQKPGKPPKLLIYRASTLASGVPSRFSGSGSGTDFTLTISSLQPEDVATYYCQCTGYGISWPIGGGTKVEIK
# Molecular target: T1, human CLDN18.1 expressed on the cell …
# Assay: flow cytometry on 18.1-HEK293 cells
# Description: (§1) After culturing at 4° C. for 30 min, the cells were washed and added with 100 μL of 1:300 diluted PE-labeled Goat F(ab′)₂ Anti-human Fc (PE) and cultured at 4° C. for 30 min. The cells were then washed and the binding of the bispecific antibody to CLDN18.1 molecules expressed on the surface of HEK293 cells was detected through flow cytometry.
row,Binder,binding result
1,B1,no binding (tested: 115.6 nM highest concentration tested)
2,B2,no binding (tested: 115.6 nM highest concentration tested)
3,B3,no binding (tested: 115.6 nM highest concentration tested)
4,B4,no binding (tested: 115.6 nM highest concentration tested)

# Molecular target: T2, human CLDN18.2 expressed on the cell …
# Assay: flow cytometry on 18.2-HEK293 cells
# Description: as §1, with “diluted” for “diluted PE-labeled”, “cultured” for “cultured at 4° C.”, “CLDN18.2” for “CLDN18.1 molecules”
row,Binder,binding result
1,B1,binds
2,B2,binds
3,B3,binds
4,B4,binds

# Molecular target: T3, P17-His fusion protein (extracellular domain of human CD40 with a His tag) (human, UniProt P25942 21-193)
# T3 construct: range 21-193; not shown: His tag
# T3 sequence (P25942 21-193 limits assumed): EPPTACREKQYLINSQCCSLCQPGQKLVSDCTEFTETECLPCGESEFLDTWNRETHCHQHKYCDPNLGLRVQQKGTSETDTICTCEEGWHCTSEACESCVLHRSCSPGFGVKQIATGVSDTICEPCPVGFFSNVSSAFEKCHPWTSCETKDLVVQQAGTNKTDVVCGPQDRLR
# Assay: ELISA, P17-His coated on plate, anti-human Fc-HRP detection
# Description: The obtained 4 bispecific antibodies were detected for affinity against the extracellular domain of human CD40 (Uniprot: positions 21 to 193 of P25942) through ELISA. The extracellular domain of human CD40 carried a His tag, also referred to herein as a P17-His fusion protein.
# 2 μg/mL of the P17-His fusion protein was coated onto a 96-well ELISA plate at 30 μL per well at 4° C. overnight. The next day, after encapsulating in 5% PBSM (PBS+5% Milk) at room temperature for 2 h, serially diluted (20 nM in the first well, 10-fold dilution in the second well, 3-fold dilution in the third to seventh wells, and 4-fold dilution in the seventh to eighth wells) anti-CD40×CLDN18.2 bispecific antibody, positive control APX005 (sequence derived from Apexigen Inc. US20120301488A1, prepared in the laboratory), or isotype IgG1 negative control were added. After culturing at room temperature for 1 h, washed 3 times with PBST (PBS+0.05% Tween-20), and then 30 μL of Goat-anti-human-Fc-HRP (abcam, ab97225) was added. After culturing at room temperature for 1 h, washed 3 times with PBST (PBS+0.05% Tween-20), and TMB colorimetric solution was added for color development for 5 to 30 min. After termination, OD450 was detected through a microplate reader (Beckman Coulter), and the results were analyzed and plotted through Graphpad 7.0 to evaluate the binding of the bispecific antibody to the P17-His fusion protein.
row,Binder,EC50
1,B1,0.11 nM
2,B2,0.102 nM
3,B3,0.127 nM
4,B4,0.104 nM
5,B5,0.0612 nM
